Reference: US20260174875A1 (Novo Nordisk A/S, priority 2023, published 2026)
Numbered stars: 1 amine (or outer) side, 2 acyl side, 3 side chain; on linkers, the order of the positions; unused ones are H or OH. Square brackets hold non-standard residues; d marks the D form. Side chains are listed from the residue outwards. * marks the point of attachment. C20 diacid = O=C(O)CCCCCCCCCCCCCCCCCCC(=O)*; C18 diacid = O=C(O)CCCCCCCCCCCCCCCCC(=O)*; γGlu = O=C(O)[C@H](CCC(=O)[*:2])N[*:1]; Chem. 29 = not defined here; AEEA = NCCOCCOCC(=O)O; Aib = CC(C)(N)C(=O)O

T1: human GIP receptor (human, UniProt P48546 22-466)
T1 sequence (looked up): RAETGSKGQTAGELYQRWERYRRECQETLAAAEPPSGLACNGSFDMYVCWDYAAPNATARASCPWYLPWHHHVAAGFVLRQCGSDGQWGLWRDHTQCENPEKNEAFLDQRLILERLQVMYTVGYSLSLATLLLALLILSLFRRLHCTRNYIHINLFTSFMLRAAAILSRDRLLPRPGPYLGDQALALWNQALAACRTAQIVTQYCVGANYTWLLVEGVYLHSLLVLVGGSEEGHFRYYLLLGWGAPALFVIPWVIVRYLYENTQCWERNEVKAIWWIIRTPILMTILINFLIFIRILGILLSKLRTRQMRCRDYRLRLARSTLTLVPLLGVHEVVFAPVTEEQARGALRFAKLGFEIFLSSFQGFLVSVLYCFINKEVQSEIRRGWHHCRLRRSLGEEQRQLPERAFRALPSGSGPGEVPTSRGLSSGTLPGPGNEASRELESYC

T2: human amylin-3(a) receptor (human, UniProt P30988 25-474; O60896 24-148)
T2 sequence (looked up) 1: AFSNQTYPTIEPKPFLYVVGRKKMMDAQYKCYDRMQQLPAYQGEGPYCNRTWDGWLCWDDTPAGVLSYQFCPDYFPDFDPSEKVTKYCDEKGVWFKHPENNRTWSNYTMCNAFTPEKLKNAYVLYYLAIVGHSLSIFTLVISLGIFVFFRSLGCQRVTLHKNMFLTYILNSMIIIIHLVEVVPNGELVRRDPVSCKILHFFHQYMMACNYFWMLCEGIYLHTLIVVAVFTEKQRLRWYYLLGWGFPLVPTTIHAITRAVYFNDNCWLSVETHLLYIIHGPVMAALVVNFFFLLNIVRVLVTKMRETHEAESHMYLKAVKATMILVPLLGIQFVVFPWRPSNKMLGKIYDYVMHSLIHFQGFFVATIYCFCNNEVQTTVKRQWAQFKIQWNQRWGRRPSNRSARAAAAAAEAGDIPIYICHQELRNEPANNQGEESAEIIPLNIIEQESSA
T2 sequence (looked up) 2: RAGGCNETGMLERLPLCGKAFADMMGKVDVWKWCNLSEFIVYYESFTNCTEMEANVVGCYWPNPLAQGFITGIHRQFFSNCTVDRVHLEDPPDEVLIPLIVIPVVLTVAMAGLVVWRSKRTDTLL

B1: Compound 98 (peptide)
peptide: Y[Aib]EGTFTSDYSILLEEQAAREFIEWLLAGGPSSGAGQAPGQAPLASHLSTAQTARLSAELHK([AEEA-AEEA-γGlu-C18 diacid])LATLPRTETGSGSP-NH2
B2: Compound 86 (peptide)
peptide: H[Aib]HGTFTSDYSILLEEQAAREFIEWLLAGGPSK([AEEA-AEEA-γGlu-C18 diacid])GAPPPSGGGASELSTAALGRLSAELHRLATLPRTETGSGSP-NH2
B3: Compound 95 (peptide)
peptide: Y[Aib]EGTFTSDYSILLEEQAAREFIEWLLAGGPSGGGGEASHLSTAQTQRLSAELHK([AEEA-AEEA-γGlu-C18 diacid])LATLPRTETGSGSP-NH2
B4: Compound 92 (peptide)
peptide: H[Aib]HGTFTSDYSILLEEQAAREFIEWLLAGGPSSGAGQAPGQAPGASHLSTAQTQRLSAELHRLATLPK([AEEA-AEEA-γGlu-C18 diacid])TETGSGSP-NH2
B5: Compound 91 (peptide)
peptide: H[Aib]HGTFTSDYSILLEEQAAREFIEWLLAGGPSSGAGQAPGQAPGASHLSTAQTQRLSAELHRLK([AEEA-AEEA-γGlu-C18 diacid])TLPRTETGSGSP-NH2
B6: Compound 10 (peptide)
peptide: Y[Aib]EGTFTSDYSILLEEQAAREFIEWLLAGGPSK(Chem. 29)GAPPPSGGGEASELSTAALGRLSAELHELATLPRTETGSGSP-NH2
modifications: reading uncertain
B7: Compound 89 (peptide)
peptide: H[Aib]HGTFTSDYSILLEEQAAREFIEWLLAGGPSSGEASHLSTAALGRLSAELHRLK([AEEA-AEEA-γGlu-C18 diacid])TLPRTETGSGSP-NH2
B8: Compound 96 (peptide)
peptide: Y[Aib]EGTFTSDYSILLEEQAAREFIEWLLAGGPSGGGGEASHLSTAQTQRLSAELHK([AEEA-AEEA-γGlu-C20 diacid])LATLPRTETGSGSP-NH2
B9: Compound 93 (peptide)
peptide: H[Aib]HGTFTSDYSILLEEQAAREFIEWLLAGGPSSGAGQAPGQAPLASHLSTAQTQRLSAELHK([AEEA-AEEA-γGlu-C18 diacid])LATLPRTETGSGSP-NH2
B10: Compound 97 (peptide)
peptide: Y[Aib]EGTFTSDYSILLEEQAAREFIEWLLAGGPSSGAGQAPGASHLSTAQTQRLSAELHK([AEEA-AEEA-γGlu-C18 diacid])LATLPRTETGSGSP-NH2
B11: Compound 90 (peptide)
peptide: H[Aib]HGTFTSDYSILLEEQAAREFIEWLLAGGPSSGEASHLSTAALGRLSAELHRLATLPK([AEEA-AEEA-γGlu-C18 diacid])TETGSGSP-NH2
B12: Compound 88 (peptide)
peptide: H[Aib]HGTFTSDYSILLEEQAAREFIEWLLAGGPSSGEASHLSTAALGRLSAELHK([AEEA-AEEA-γGlu-C18 diacid])LATLPRTETGSGSP-NH2
B13: Compound 87 (peptide)
peptide: H[Aib]HGTFTSDYSILLEEQAAREFIEWLLAGGPSSGEASHLSTAALGRLSAK([AEEA-AEEA-γGlu-C18 diacid])LHRLATLPRTETGSGSP-NH2
B14: Compound 94 (peptide)
peptide: Y[Aib]EGTFTSDYSILLEEQAAREFIEWLLAGGPSRGEASHLSTAQTQRLSAELHK([AEEA-AEEA-γGlu-C20 diacid])LATLPRTETGSGSP-NH2

Key:
Test in all cases: cell-based or functional assay
[1] = target: T3, human GLP-1 receptor (human, UniProt P43220 24-463)
[2] = target: T1, human GIP receptor
[3] = target: T2, human amylin-3(a) receptor
[4] = target: T3, human GLP-1 receptor; remark: listed apart in the source
[5] = target: T1, human GIP receptor; remark: listed apart in the source
[6] = target: T2, human amylin-3(a) receptor; remark: listed apart in the source

Binder	hGLP-1R Potency, no HSA, EC50 [pM] [1] [pM]	hGIPR Potency, no HSA, EC50 [pM] [2] [pM]	hAMYR3 Potency, no HSA, EC50 [pM] [3] [pM]	hGLP-1R Potency, 1% HSA, EC50 [pM] [4] [pM]	hGIPR Potency, 1% HSA, EC50 [pM] [5] [pM]	hAMYR3 Potency, 1% HSA, EC50 [pM] [6] [pM]
B1	13.3	2.58	2.3	43.1	11.2	108
B2	6.69	5.11	3.31	130	122	58.4
B3	17.9	3.13	3.76	146	22.8	233
B4	2.55	3.12	2.64	13.4	8.53	75.1
B5	3.79	3.21	2.26	17.4	9.31	28.8
B6	13.8	2.11	6.8	246	42.4	175
B7	3.86	6.47	3.12	29.5	30.6	39.7
B8	16.8	3.62	3.73	162	29.9	595
B9	4.11	2.54	2.23	16.4	8.58	66.4
B10	16.1	2.3	2.81	109	8.38	132
B11	4.16	5.4	5.45	38.6	32.5	183
B12	4.12	5.68	3.7	48.8	40.4	102
B13	8.49	7.26	4.99	39.3	38.6	36.5
B14	16.1	2.9	3.91	130	29.5	377
